Measured values taken from patent US20190352420A1 (Boehringer Ingelheim, published 2019).

B1: C3 (antibody, human IgG1, kappa, L234A L235A, V domains shown)
VH: QVQLVQSGAEVKKPGDSVKVSCKASGYTFTTYWMHWVRQAPGQGLEWMGAIYPGLSDTTYSQKFKGKVTMTRDTSTSTVYMKLSSLRSEDTAVYYCARLLDYAMDYWGQGTLVTVSS
VL: DIQMTQSPSSLSASVGDRVTITCRASQDIRSYLNWHQQKPGKAPKLLIWYTSRLHSGVPSRFSGSGSGTDYTLTISSLQPEDFATYFCQQGETLPWTFGQGTKLEIKR
notes: Humanized monoclonal antibody; also called anti-CD73 antibody C3
B2: C5 (antibody, human IgG1, kappa, L234A L235A, V domains shown)
VH: QVQLVQSGAEVKKPGDSVKVSCKASGYTFTTYWMHWVRQAPGQGLEWMGAIYPGNSDTTYNQKFKGKVTMTRDTSTSTVYMKLSSLRSEDTAVYYCARLLDYAMDYWGQGTLVTVSS
VL: DIQMTQSPSSLSASVGDRVTITCRASQDIRSYLNWHQQKPGKAPKLLIWYTSRLHSGVPSRFSGSGSGTDYTLTISSLEPEDFATYFCQQGETLPWTFGQGTKLEIKR
notes: Humanized monoclonal antibody; also called anti-CD73 antibody C5
B3: C6 (antibody, human IgG1, kappa, L234A L235A, V domains shown)
VH: QVQLVQSGAEVKKPGDSVKVSCKASGYTFTTYWMHWVRQAPGQGLEWMGAIYPGNSDTTYNQKFKGKVTMTRDTSTSTVYMKLSSLRSEDTAVYYCARLLDYAMDYWGQGTLVTVSS
VL: DIQMTQSPSSLSASVGDRVTITCRASQDIRNYLNWHQQKPGKAPKLLIWYTSRLHSGVPSRFSGSGSGTDYTLTISSLQPEDFATYFCQQGNTLPWTFGQGTKLEIKR
notes: Humanized monoclonal antibody; also called anti-CD73 antibody C6
B4: C4 (antibody, human IgG1, kappa, L234A L235A, V domains shown)
VH: QVQLVQSGAEVKKPGDSVKVSCKASGYTFTTYWMHWVRQAPGQGLEWMGAIYPGLSDTTYNQKFKGKVTMTRDTSTSTVYMKLSSLRSEDTAVYYCARLLDYAMDYWGQGTLVTVSS
VL: DIQMTQSPSSLSASVGDRVTITCRASQDIRSYLNWHQQKPGKAPKLLIWYTSRLHSGVPSRFSGSGSGTDYTLTISSLQPEDFATYFCQQGETLPWTFGQGTKLEIKR
notes: Humanized monoclonal antibody; also called C04; inventive anti-CD73 antibody C4

Key:
[1] = target: T1, cell-bound CD73 (human, UniProt P21589 27-549); experiment: cell-based or functional assay
T1 sequence (looked up): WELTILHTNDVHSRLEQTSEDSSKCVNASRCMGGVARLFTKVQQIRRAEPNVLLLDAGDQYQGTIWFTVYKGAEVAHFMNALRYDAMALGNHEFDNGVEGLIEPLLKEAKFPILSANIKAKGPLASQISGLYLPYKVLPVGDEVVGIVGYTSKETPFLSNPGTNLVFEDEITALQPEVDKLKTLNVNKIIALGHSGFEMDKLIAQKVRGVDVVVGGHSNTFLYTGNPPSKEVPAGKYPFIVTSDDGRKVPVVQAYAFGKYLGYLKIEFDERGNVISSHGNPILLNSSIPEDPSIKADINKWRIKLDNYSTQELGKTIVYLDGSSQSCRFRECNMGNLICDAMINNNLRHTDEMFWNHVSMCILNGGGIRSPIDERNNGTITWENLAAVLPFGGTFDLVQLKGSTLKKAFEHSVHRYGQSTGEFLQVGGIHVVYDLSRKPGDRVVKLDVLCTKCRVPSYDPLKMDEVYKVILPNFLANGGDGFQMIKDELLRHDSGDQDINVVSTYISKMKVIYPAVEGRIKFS

[2] = target: T2, human CD73-His (human, UniProt P21589 27-549); experiment: SPR (ProteOn XPR36), antibody captured on Protein A/G, dimeric human CD73-His as analyte, avidity format, 1:1 Langmuir fit
T2 construct: extracellular domain; The SPR analyte is only called 'human CD73-His' (non-covalent dimeric antigen); also called HuCD73 His tagged; HuCD73his20170303
T2 sequence: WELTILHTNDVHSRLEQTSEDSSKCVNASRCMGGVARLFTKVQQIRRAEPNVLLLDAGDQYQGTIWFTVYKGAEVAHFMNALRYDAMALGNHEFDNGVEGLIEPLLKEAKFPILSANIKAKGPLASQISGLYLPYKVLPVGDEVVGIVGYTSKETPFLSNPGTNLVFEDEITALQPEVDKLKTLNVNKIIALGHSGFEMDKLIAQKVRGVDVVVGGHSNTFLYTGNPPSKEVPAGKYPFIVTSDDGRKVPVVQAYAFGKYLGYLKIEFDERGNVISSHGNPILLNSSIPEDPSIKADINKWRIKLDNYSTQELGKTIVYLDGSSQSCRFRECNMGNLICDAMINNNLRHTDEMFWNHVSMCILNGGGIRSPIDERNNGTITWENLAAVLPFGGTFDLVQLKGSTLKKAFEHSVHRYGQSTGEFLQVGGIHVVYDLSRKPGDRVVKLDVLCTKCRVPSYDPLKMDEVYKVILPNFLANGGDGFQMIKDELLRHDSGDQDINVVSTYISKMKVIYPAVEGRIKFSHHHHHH
Experimental: For the avidity format, the experiment was performed on a Bio-Rad ProteOn XPR36 instrument. Antibodies were captured via Protein A/G and the non-covalent dimeric antigens were flowed over the captured surface. The running buffer for this experiment and all dilutions were prepared in PBS-T-EDTA. The GLM sensor chip was normalized and pre-conditioned as per the manufacturer's recommendations. The sensor chip was activated with an equal mixture of EDC/s-NHS in the horizontal direction for 300 s at a flow rate of 30 μL/min and immobilized with recombinant Protein A/G (50 μg/ml in 10 mM acetate pH 4.5) in the horizontal direction for 300 s at a flow rate of 30 μL/min resulting in about 5000 RU of Protein A/G on the surface. The sensor chip was deactivated with 1M ethanolamine-HCl in the horizontal direction for 300 s at a flow rate of 30 μL/min. The sensor chip was regenerated with 18 s of 0.85% phosphoric acid at a flow rate of 100 μL/min 2 times horizontally and 2 times vertically.
About 300 RU of antibody was captured on the Protein A/G surface vertically for 60 s at a flow rate of 30 μL/min. The capture surface was stabilized by injecting PBS-T-EDTA for 60 s at a flowrate of 100 μL/min horizontally. The analyte (human CD73-His) was injected horizontally over the captured antibody for 600 s at a flow rate of 30 μL/min with a dissociation of 1200 s. The concentrations of human CD73-His were 0 nM, 3.125 nM, 6.25 nM, 12.5 nM, 25 nM and 50 nM. The surface was regenerated by injecting 0.85% phosphoric acid for 18 s at a flow rate of 100 μL/min one time horizontally and one time vertically.
The interspot (interactions with sensor surface) and blank (PBS-T-EDTA or 0 nM analyte) were subtracted from the raw data.

[3] = target: T1, cell-bound CD73; experiment: cell-based or functional assay; remark: listed apart in the source
[4] = target: T1, cell-bound CD73; experiment: cell-based or functional assay; remark: listed apart in the source
[5] = target: T3, non-cell-bound CD73 (human, UniProt P21589 27-549, limits assumed); experiment: cell-based or functional assay
T3 sequence (looked up): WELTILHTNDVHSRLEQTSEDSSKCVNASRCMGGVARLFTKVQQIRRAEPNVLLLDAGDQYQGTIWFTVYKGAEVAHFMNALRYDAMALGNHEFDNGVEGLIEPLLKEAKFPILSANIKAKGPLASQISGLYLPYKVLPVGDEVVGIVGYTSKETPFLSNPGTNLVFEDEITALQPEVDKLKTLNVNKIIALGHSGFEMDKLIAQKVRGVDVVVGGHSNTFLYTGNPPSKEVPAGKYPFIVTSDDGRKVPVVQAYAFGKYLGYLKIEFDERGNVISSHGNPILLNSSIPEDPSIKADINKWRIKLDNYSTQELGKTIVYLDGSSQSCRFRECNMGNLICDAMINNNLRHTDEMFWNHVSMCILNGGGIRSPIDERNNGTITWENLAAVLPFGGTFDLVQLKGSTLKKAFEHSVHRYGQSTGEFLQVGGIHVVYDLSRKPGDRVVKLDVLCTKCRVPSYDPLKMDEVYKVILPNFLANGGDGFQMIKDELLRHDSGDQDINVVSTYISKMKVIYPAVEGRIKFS

[6] = target: T4, recombinant human CD73 protein (human, UniProt P21589 27-549, limits assumed); experiment: cell-based or functional assay
T4 sequence (looked up): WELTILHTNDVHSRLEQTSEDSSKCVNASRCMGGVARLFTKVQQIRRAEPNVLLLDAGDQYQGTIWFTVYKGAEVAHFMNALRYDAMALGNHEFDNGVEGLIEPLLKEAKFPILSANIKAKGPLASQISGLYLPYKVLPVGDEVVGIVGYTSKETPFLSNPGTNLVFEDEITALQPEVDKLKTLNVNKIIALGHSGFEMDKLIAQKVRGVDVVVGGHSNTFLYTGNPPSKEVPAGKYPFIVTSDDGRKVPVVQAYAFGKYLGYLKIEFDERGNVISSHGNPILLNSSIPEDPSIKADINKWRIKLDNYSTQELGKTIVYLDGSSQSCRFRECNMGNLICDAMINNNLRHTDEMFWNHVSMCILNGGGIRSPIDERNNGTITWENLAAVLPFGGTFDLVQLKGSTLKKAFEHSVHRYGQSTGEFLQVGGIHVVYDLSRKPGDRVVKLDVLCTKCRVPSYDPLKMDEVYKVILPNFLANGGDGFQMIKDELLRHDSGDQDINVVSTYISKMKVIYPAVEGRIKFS

[7] = target: T5, mouse CD73 (mouse, UniProt Q61503 29-551, limits assumed); experiment: SPR, mouse CD73 compared with human CD73 (reference)
T5 construct: also called murine CD73
T5 sequence (looked up): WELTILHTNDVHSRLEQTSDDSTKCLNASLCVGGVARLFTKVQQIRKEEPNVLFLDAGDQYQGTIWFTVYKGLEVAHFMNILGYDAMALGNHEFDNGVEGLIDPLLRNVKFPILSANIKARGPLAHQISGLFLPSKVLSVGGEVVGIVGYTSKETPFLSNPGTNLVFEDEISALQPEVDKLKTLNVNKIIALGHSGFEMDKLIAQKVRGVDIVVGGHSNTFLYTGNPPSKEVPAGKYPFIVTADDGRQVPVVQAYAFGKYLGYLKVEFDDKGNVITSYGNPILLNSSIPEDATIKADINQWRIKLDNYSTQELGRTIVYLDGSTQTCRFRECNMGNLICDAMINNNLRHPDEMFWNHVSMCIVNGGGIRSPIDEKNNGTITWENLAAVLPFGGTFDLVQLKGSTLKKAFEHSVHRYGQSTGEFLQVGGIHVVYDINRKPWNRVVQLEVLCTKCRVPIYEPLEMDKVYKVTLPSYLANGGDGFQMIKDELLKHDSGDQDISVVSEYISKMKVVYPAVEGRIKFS

[8] = target: T1, cell-bound CD73; experiment: cell-based or functional assay; remark: listed apart in the source
[9] = target: T1, cell-bound CD73; experiment: cell-based or functional assay; remark: listed apart in the source

Row | Binder | CD8 T cell proliferation [% of control], Donor A, 1 nM antibody [1] | CD8 T cell proliferation [% of control], Donor B, 1 nM antibody [1] | CD8 T cell proliferation [% of control], Donor C, 1 nM antibody [1] | CD8 T cell proliferation [% of control], Donor D, 1 nM antibody [1] | CD8 T cell proliferation [% of control], Donor E, 1 nM antibody [1] | CD8 T cell proliferation [% of control], Donor F, 1 nM antibody [1] | Kd [2] | CD73 surface reduction [%] on Colo201 cells, 24 h, flow cytometry [3] | IFNγ release [fold change over control], Donor A, 1 nM antibody [4] | IFNγ release [fold change over control], Donor B, 1 nM antibody [4] | IFNγ release [fold change over control], Donor C, 1 nM antibody [4] | IFNγ release [fold change over control], Donor D, 1 nM antibody [4] | IFNγ release [fold change over control], Donor E, 1 nM antibody [4] | IFNγ release [fold change over control], Donor F, 1 nM antibody [4] | % of max. adenosine inhibition, Colo-201 culture supernatant [5] | IC90 of inhibition of CD73 enzymatic function (luciferase-based assay) [6] | fold higher binding to human CD73 than to mouse CD73 [7] | Max. adenosine inhibition [%] in Colo201 cells [8] | % of max. adenosine inhibition, washed Colo-201 cells [9]
1 | B1 | 103% | 80.2% | 116% | 99.3% | 101% | 91.3% | 0.072 nM | 16% | 19.9 fold | 7.7 fold | 31.9 fold | 19 fold | 14.2 fold | 6.7 fold | 82% | 0.32 nM | 117 fold | 88% | 81%
2 | B2 | 103% | 80.3% | 101% | 99.3% | 100% | 86% | 0.049 nM | 19% | 24.5 fold | 11.3 fold | 59.3 fold | 22.9 fold | 12.4 fold | 5.8 fold | 80% | 0.29 nM | 163 fold | 87% | 82%
3 | B3 | 102% | 65.4% | 88.3% | 99.6% | 100% | 91.1% | 0.096 nM | 19% | 24.3 fold | 12.9 fold | 55.5 fold | 25.8 fold | 14 fold | 10.3 fold | 78% | 0.24 nM | 58 fold | 88% | 81%
4 | B4 | 104% | 70.3% | 111% | 98.5% | 100% | 92.6% | 0.074 nM | 15% | 20.2 fold | 8.7 fold | 35.2 fold | 13.7 fold | 14.1 fold | 7.1 fold | 81% | 0.24 nM | 120 fold | 88% | 82%
